Test results as given in the supplement of paper PMC10567573.
± gives the standard deviation.

Experiment: protein stability index of a GFP-peptide fusion (GPS, HEK-293T) (PSI 1-6); higher = more stable
[1] = treatment: DMSO, c terminus: a fixed tail appended
[2] = treatment: MLN4924 1 uM, 8 h, c terminus: a fixed tail appended
[3] = treatment: DMSO, c terminus: native
[4] = treatment: MLN4924 1 uM, 8 h, c terminus: native
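Further: 24-mer peptide tiles fused after GFP, lentivirally expressed, FACS-sorted into six equal bins by GFP/DsRed ratio, decoded by Illumina sequencing, PSI is the read-weighted mean bin number.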

Row | Sequence | protein stability index [1] | protein stability index [2] | protein stability index [3] | protein stability index [4]
1 | TLFQTESPQSGSILTEETEVKGTL [PBXIP1] | 4.92 ± 0.17 | 4.7 ± 0.25 |  | 
2 | DIAAMTNSLFIDRQKCMAHRTRYP [TEKT4] | 2.45 ± 0.24 | 2.57 ± 0.19 |  | 
3 | GRVVPESQCQMETKPLAIHPCGDK [ADAMTSL2] | 4.53 ± 0.17 | 4.71 ± 0.46 |  | 
4 | PPVTDLGELRRRPGDMKTKMELLI [CPOX] | 3.2 ± 0.36 | 3.03 ± 0.3 |  | 
5 | VGVDGVRAFLQTYSHEVSLTADSR [PCDHGA10] | 2.49 ± 0.37 | 2.61 ± 0.39 |  | 
6 | GAERLDALLADEERCLSCILAQQP [TRADD] | 3.59 ± 0.25 | 3.83 ± 0.28 |  | 
7 | RAYFMSDTREEKRFLGEGHHRVQE [CHGB] | 3.87 ± 0.28 | 3.89 ± 0.06 |  | 
8 | AKDMKKAVAHMKYMGKGSMTGLAL [MATN2] |  | 2.37 ± 0.3 |  | 
9 | DSYYRLVIHRALDREQVSSYNITV [PCDHGA10] | 2.87 ± 0.6 | 2.44 ± 0.55 |  | 
10 | PCSPDSSSVCVQGRCIHAGCDRII [ADAMTS4] | 3.84 ± 0.58 | 3.67 ± 0.25 |  | 
11 | WDMNSAPRLVSETAERKQEQKTGT [MFSD9] | 5.44 ± 0.2 | 5.38 ± 0.13 |  | 
12 | HTPGGQNQEILLPGGITSHQLLGL [TNXB] | 3.33 ± 0.22 | 3.47 ± 0.31 |  | 
13 | TLELCHDELFADLFNSNHKAGGAG [CEBPD] |  | 4.24 ± 1 |  | 
14 | CIKIWDVTSQATLLTITKAHSNAI [WDR88] | 2.28 ± 0.33 | 2.61 ± 0.28 |  | 
15 | LKRKGKTDSPWIKPARKRRRRSRK [EHMT1] | 5.1 ± 0.17 | 5.03 ± 0.23 |  | 
16 | KQDLVPGSPDDSHPKDGPSPGGTL [DLC1] | 5.53 ± 0.25 | 5.37 ± 0.43 |  | 
17 | PRRVCVGGKRRRDDISVDSLDFTK [PPP2R2C] | 3.79 ± 0.16 | 3.9 ± 0.38 |  | 
18 | CSTTDHPYKKPYMETSPSEEDSFY [TBX5] | 4.34 ± 0.13 | 4.31 ± 0.2 |  | 
19 | RRPRRVEAERPHSLIGVIRETVL [FAM189A2] |  |  | 3.39 ± 0.12 | 3.42 ± 0.22
20 | LVEHYKKAPIFTSEHGEKLYLVRA [NCK2] | 2.28 ± 0.21 | 2.42 ± 0.24 |  | 
21 | DLKNVKSKIGSTDNIKYQPKGGQV [MAP2] | 3.24 ± 0.16 | 3.54 ± 0.32 |  | 
22 | GKGDDSETDKNNCSNAKAVETDV [KCNA4] |  |  | 5.13 ± 0.28 | 5.52 ± 0.38

Row | Sequence | protein stability index [1] | protein stability index [2] | protein stability index [3] | protein stability index [4]
23 | DRLRDEELAELEDALRNLKCGSGA [TRADD] | 4.95 ± 0.23 | 4.95 ± 0.24 |  | 
24 | TETQRLGLAMALEPNTTFLRKSLK [FANCE] | 4.05 ± 0.19 | 4.14 ± 0.16 |  | 
25 | KREELCRQIQEEEDEKQRLQNEVR [SSNA1] | 5.01 ± 0.22 | 5.1 ± 0.075 |  | 
26 | GQMSTPETPQPSPPGGSGSEPYKL [HNF4A] | 5.16 ± 0.21 | 5.17 ± 0.19 |  | 
27 | NGSDPRSFPLWYEEALKDEEERAQ [MAGEA10] | 5.34 ± 0.36 | 5.42 ± 0.2 |  | 
28 | SLIGHLQTLSPDMQGAYCTFPASV [DUSP5] | 2.07 ± 0.35 | 2.2 ± 0.38 |  | 
29 | LFDFDLEVKPVLEVLVGKTIEQSL [RSPH3] | 2.48 ± 0.42 | 2.42 ± 0.039 |  | 
30 | EKIHEMVKKNSAKSMGLKKKAFVW [ACSBG2] | 2.49 ± 0.2 | 2.45 ± 0.3 |  | 
31 | IDSSSSWWTNWVIPAISAVAVALM [CYB5A] | 2.64 ± 0.14 | 2.69 ± 0.15 |  | 
32 | LCDGNPRRPSPVLRHLELLDEFAR [SCNN1D] | 3.26 ± 0.087 | 3.53 ± 0.26 |  | 
33 | LKKMGKRLDYLNLKGARLTVEQGC [FBXO39] | 2.62 ± 0.34 | 2.67 ± 0.28 |  | 
34 | EGGLYFERRPVAQSTDGARGKRGY [SPSB2] | 4.55 ± 0.33 | 5.03 ± 0.11 |  | 
35 | RTRRRLSRNRDPGRLILSTIRLRP [PWWP2B] | 4.41 ± 0.45 | 4.32 ± 0.21 |  | 
36 | FCLLSCGILTFLAVLGRYVPGLLL [RETREG3] | 2.36 ± 0.32 | 2.09 ± 0.23 |  | 
37 | IKAVTHQVKFGQQNPRQVAQSEAE [ZC3H15] | 4.86 ± 0.2 | 4.9 ± 0.23 |  | 
38 | SQKNEKALTNIQNCMAEKRETVLI [C8orf76] | 3.54 ± 0.29 | 3.69 ± 0.19 |  | 
39 | RQGLKYCLPLTFCIHTGLSQYIAV [FBXO3] | 3.08 ± 0.45 | 2.87 ± 0.52 |  | 
40 | MVWNQNGKSPSITFEYTLLQPPHE [ADAMTSL2] | 2.23 ± 0.27 | 2.64 ± 0.37 |  | 
41 | GGAQASGTLIGVGQSVTAVGRIIA [MFSD9] | 3.38 ± 0.34 | 3.42 ± 0.2 |  | 
42 | LVVFTASMEIYGSAVADKLDNSRS [CTDNEP1] | 2.92 ± 0.74 | 2.26 ± 0.37 |  | 
43 | FDVDHGICIMDAENITTVSVIKDH [WDR88] | 3.27 ± 0.2 | 3.25 ± 0.25 |  | 
44 | NLASYDVCSILLGTSTLLVWVGVI [MCOLN1] | 3.08 ± 0.6 | 3.19 ± 0.7 |  | 

Row | Sequence | protein stability index [1] | protein stability index [2] | protein stability index [3] | protein stability index [4]
45 | TGGVTALCWDPVQRVLFSGSSDHS [WDFY2] | 2.73 ± 0.21 | 2.78 ± 0.59 |  | 
46 | SHQNLRVDDLSVEWDAMGGKVQDI [FSD1] | 4.49 ± 0.19 | 4.47 ± 0.28 |  | 
47 | WSLGVIMYEMLIGYPPFCSETPQE [STK38L] | 2.85 ± 0.59 | 2.52 ± 0.44 |  | 
48 | LSPMTASSFLSFAELFSYVLQDRA [FEM1A] | 2.47 ± 0.39 | 2.26 ± 0.13 |  | 
49 | LPRKESPSVRSSKDGKLLAATLLL [TNFSF13B] | 2.26 ± 0.21 | 2.18 ± 0.22 |  | 
50 | KEAQYIRTERVEQAFRAIDRGDYY [PCMTD1] | 3.31 ± 0.33 | 3.34 ± 0.28 |  | 
51 | VRKPAEAERYKLERLAEAEKSQLI [FLOT1] | 4.46 ± 0.26 | 4.49 ± 0.14 |  | 
52 | SGSQRHMVGQKDSVILSVKFSPFG [TLE6] | 2.2 ± 0.27 | 2.49 ± 0.22 |  | 
53 | YSQKESGHSNWLGDPEEPLTGFSW [ATL3] | 1.92 ± 0.44 | 2.78 ± 0.1 |  | 
54 | SHCDSPSPQEDGQIMFDVEMHTSR [BNIP3L] | 4.79 ± 0.31 | 4.8 ± 0.38 |  | 
55 | FVEDQAVVETVFFLTSRTRALLRR [ZSWIM9] | 2.21 ± 0.25 | 2.22 ± 0.14 |  | 
56 | VLRTYLELVLCVLVSIRNNRNLQK [FBXO33] | 2.96 ± 0.71 | 2.64 ± 0.51 |  | 
57 | RPHGIFGPRDPQLVPILIEAARNG [NSDHL] | 2.91 ± 0.34 | 3.04 ± 0.24 |  | 
58 | LHDARLLRTIPSPYPASKADIPSV [DCAF4] | 3.36 ± 0.21 | 3.43 ± 0.11 |  | 
59 | VHRDLKPENLLLASKCKGAAVKLA [CAMK2B] | 2.83 ± 0.38 | 2.75 ± 0.25 |  | 
60 | GQLEFRALLFIPRRAPFDLFENKK [HSP90AB1] | 2.22 ± 0.22 |  |  | 
61 | PPTINGIKGLQRKERLKPAHIHLQ [KRT34] | 3.34 ± 0.15 | 3.59 ± 0.46 |  | 
62 | GSCSTVGGVGYGDSKDCILEPLSL [ZNF277] | 3.59 ± 0.32 | 3.5 ± 0.24 |  | 
63 | DINSVRYYPSGDAFASGSDDATCR [GNB5] | 4.03 ± 0.047 | 4.22 ± 0.16 |  | 
64 | LRRTMQELEIELQSQLSMKAGLEN [KRT15] | 2.86 ± 0.22 | 3.13 ± 0.38 |  | 
65 | KAILDAEPGPRPALQPSPSIRLPL [TBC1D10A] | 4.27 ± 0.15 | 4.34 ± 0.059 |  | 
